Laboratory results published in patent publication US20210002356A1 (ZHUHAI TRINOMAB BIOTECHNOLOGY, published 2021).

B1: TRN0010 antibody (antibody, V domains shown)
VH: QVQLQESGPGLVKPSETLSLRCTVSGGSISSYYWSWFRQPPGKGLEWIGYVHYSGSTNYNPSLKSRFTLSVDTSKSQFSLRLRSVTAADTAIYYCARDKYQTDVSDIWGQGTVVTVSS
VL: DIQMTQSPGTLSLSPGERATLSCRASQSITSSFLAWYQQKPGQAPRLLIYGASSRATGIPDRFSGSGSGTDFILTISRLEPEDFAVYYCQQYDTSRTFGQGTTVEIK
B2: TRN0012 antibody (antibody, V domains shown)
VH: EVQLVQSGAEVKKPGESLRISCQGSGYTFTNYWIGWVRQMPGKGLEWMGIVYPGDSDTRYSPSFQGQITISADKSISTAYLQWNNLKASDTGMYYCATQQSNPYDSGSYWYFDSWGQGTLVTVSS
VL: DIVMTQSPPSLSASIGDRVTITCRASQGIRNFLAWYQQKPGKVPKLLIYAASTLQSGVPSRFSGSGSGTDFTLTISSLQPEDVATYYCQKYFSAPPDFGQGTRLEIK

Target: tetanus toxin (Clostridium tetani, UniProt P04958 2-1315)
Sequence (P04958 2-457 limits assumed, chain 1 of 2): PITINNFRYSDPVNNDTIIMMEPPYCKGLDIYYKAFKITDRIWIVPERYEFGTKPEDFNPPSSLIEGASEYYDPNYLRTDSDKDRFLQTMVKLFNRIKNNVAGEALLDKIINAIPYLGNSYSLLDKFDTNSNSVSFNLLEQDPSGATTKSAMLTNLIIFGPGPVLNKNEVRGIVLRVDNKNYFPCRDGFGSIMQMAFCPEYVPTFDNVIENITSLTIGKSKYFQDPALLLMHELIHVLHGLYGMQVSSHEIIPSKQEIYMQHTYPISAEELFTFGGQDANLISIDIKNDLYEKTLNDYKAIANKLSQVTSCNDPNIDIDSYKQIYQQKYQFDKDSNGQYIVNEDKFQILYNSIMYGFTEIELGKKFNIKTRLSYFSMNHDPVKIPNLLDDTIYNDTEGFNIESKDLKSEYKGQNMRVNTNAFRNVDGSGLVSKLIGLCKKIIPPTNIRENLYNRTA
Sequence (P04958 458-1315 limits assumed, chain 2 of 2): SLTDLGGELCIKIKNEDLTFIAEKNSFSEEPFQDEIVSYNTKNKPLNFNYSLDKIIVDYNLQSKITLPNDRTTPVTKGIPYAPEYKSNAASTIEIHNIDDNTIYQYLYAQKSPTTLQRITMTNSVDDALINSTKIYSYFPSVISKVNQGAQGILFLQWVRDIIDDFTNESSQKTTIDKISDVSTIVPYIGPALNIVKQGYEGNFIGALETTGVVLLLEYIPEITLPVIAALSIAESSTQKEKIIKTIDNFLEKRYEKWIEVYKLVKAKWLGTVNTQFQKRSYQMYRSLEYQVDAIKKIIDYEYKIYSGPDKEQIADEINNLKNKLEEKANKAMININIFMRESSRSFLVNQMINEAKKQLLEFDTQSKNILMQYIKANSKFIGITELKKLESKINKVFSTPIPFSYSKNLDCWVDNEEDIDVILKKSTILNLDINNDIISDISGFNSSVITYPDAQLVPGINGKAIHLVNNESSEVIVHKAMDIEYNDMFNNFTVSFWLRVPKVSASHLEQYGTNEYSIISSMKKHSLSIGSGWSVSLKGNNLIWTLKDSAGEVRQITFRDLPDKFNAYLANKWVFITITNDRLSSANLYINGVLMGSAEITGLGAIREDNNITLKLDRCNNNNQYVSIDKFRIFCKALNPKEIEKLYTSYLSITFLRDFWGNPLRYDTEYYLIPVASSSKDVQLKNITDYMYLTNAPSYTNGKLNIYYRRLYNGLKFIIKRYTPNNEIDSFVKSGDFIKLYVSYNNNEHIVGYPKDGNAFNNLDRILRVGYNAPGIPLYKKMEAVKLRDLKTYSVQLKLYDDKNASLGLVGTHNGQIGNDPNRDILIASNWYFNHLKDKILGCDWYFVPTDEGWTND

Binder | Kd | koff | kon
B1 | 3.68 nM | 0.000153 s⁻¹ | 41500 M⁻¹ s⁻¹
B2 | 4.07 nM | 0.000328 s⁻¹ | 80600 M⁻¹ s⁻¹
